Measurements as given in publication PMC3847938, “Biochemical and kinetic characterisation of a novel xylooligosaccharide-upregulated GH43 β-D-xylosidase/α-L-arabinofuranosidase (BXA43) from the probiotic Bifidobacterium animalis subsp. lactis BB-12” (AMB Express, 2013).

T1: BXA43 (Bifidobacterium animalis, UniProt B8DTK7)
T1 construct: gene xynB; full-length ORF 541 residues, C-terminal His-tag, pET24(+), E. coli BL21(DE3); theoretical mass 61,774 Da, about 62 kDa on SDS-PAGE
T1 sequence (B8DTK7 1-541): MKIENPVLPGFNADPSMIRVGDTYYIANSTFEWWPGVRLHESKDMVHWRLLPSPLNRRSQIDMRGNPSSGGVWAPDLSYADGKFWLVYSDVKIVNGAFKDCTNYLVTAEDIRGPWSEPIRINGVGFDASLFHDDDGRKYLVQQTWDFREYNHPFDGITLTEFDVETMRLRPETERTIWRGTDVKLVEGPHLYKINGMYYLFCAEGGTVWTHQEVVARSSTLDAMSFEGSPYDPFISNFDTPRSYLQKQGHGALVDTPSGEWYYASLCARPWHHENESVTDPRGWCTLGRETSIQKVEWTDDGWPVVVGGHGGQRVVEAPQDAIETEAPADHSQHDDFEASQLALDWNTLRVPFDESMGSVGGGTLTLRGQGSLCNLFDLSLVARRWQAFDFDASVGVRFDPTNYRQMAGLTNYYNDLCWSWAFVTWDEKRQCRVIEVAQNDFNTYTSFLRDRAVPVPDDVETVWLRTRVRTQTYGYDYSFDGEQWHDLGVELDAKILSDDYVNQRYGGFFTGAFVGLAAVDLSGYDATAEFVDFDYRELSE


What was measured:
[1] = molecular target: T1, BXA43; experiment: p-nitrophenol release at […] nm, initial rates, fit with substrate inhibition; type: biochemical; settings: 50 mM Na-acetate pH 5.2, 40 °C; substrate inhibition by pNPX itself (uncompetitive), second site
[2] = substrate: O=[N+]([O-])c1ccc(O[C@@H]2OC[C@@H](O)[C@H](O)[C@H]2O)cc1; experiment: purified protein; type: biochemical, Bifidobacterium animalis; settings: 50 mM Na-acetate pH 5.2, 40 °C, 0.25–80 mM pNPX, 7.8 nM enzyme, error printed as ± 4.6

Ki [1] [mM] | Molecule | Km [2] [mM] | kcat [2] [s⁻¹]
29.6 ± 8.5 | O=[N+]([O-])c1ccc(O[C@@H]2OC[C@@H](O)[C@H](O)[C@H]2O)cc1 [para-nitrophenyl-β-D-xylopyranoside] |  | 
 | BXA43 (Bifidobacterium animalis subsp. lactis AD011) (protein, full-length ORF 541 residues, C-terminal His-tag, pET24(+), E. coli BL21(DE3); theoretical mass 61,774 Da, about 62 kDa on SDS-PAGE) MKIENPVLPGFNADPSMIRVGDTYYIANSTFEWWPGVRLHESKDMVHWRLLPSPLNRRSQIDMRGNPSSGGVWAPDLSYADGKFWLVYSDVKIVNGAFKDCTNYLVTAEDIRGPWSEPIRINGVGFDASLFHDDDGRKYLVQQTWDFREYNHPFDGITLTEFDVETMRLRPETERTIWRGTDVKLVEGPHLYKINGMYYLFCAEGGTVWTHQEVVARSSTLDAMSFEGSPYDPFISNFDTPRSYLQKQGHGALVDTPSGEWYYASLCARPWHHENESVTDPRGWCTLGRETSIQKVEWTDDGWPVVVGGHGGQRVVEAPQDAIETEAPADHSQHDDFEASQLALDWNTLRVPFDESMGSVGGGTLTLRGQGSLCNLFDLSLVARRWQAFDFDASVGVRFDPTNYRQMAGLTNYYNDLCWSWAFVTWDEKRQCRVIEVAQNDFNTYTSFLRDRAVPVPDDVETVWLRTRVRTQTYGYDYSFDGEQWHDLGVELDAKILSDDYVNQRYGGFFTGAFVGLAAVDLSGYDATAEFVDFDYRELSE | 15.6 ± 4.2 | 60.6 ± 10.8
